Laboratory results taken from article PMC3057836 (The Journal of Biological Chemistry, 2010).

Experiments:
[1] = molecular target: the molecule itself; experiment: crystal structure
[2] = molecular target: the molecule itself; experiment: SEC

B1: cytoplasmic fragment of SpoIISA (CSpoIISA) as found in the crystal of the CSpoIISA·SpoIISB complex (domain or fragment)
chain: GSELETDTREILEENNEMLHMYLNRLKTYQYLLKNEPIHVYYGSIDAYAEGIDKLLKTYADKMNLTASLCHYSTQADKDRLTEHMDDPADVQTRLDRKDVYYDQYGKVVLIPFTIETQNYVIKLTSDSIVTEFDYLLFTSLTSIYDLVLPIEEEGEG
modifications: selenomethionine-substituted
Question: For B1, which “stoichiometry N” value [1] is on record?
Answer: 2

B2: CSpoIISA (His6 tag-free cytosolic domain of SpoIISA) (domain or fragment)
chain: FIFLSAYVKKLAGSELETDTREILEENNEMLHMYLNRLKTYQYLLKNEPIHVYYGSIDAYAEGIDKLLKTYADKMNLTASLCHYSTQADKDRLTEHMDDPADVQTRLDRKDVYYDQYGKVVLIPFTIETQNYVIKLTSDSIVTEFDYLLFTSLTSIYDLVLPIEEEGEG
Question: Which “stoichiometry N” value [2] does the source give for B2 here?
Answer: 2
